# According to paper PMC11868391, “The p3 peptides (Aβ_(17-40/42)) rapidly form amyloid fibrils that cross-seed with full-length Aβ” (Nature Communications, 2025):
# Tests used:
# Full-length Aβ42 = experiment: cell-based or functional assay
# Full-length Aβ40 = experiment: cell-based or functional assay
"t50 of ThT fibril growth of Aβ42 monomer with p3_(42) fibril seeds (10% w/w), as a percentage relative to self-seeding (Full-length Aβ42)","t50 of ThT fibril growth of Aβ40 monomer with p3_(40) fibril seeds (10% w/w), as a percentage relative to self-seeding (Full-length Aβ40)",Binder
> 70 % relative to self-seeding t50,–,"LVFFAEDVGSNKGAIIGLMVGGVVIA (numbers count on: the Aβ peptide; Used as SEC-purified monomer, as lag-phase oligomer preparation and as fibril seeds; source: synthetic peptide, bought: EZBiolab Inc; solubilized at pH 10, monomer isolated by SEC) [p3_(42) Peptide Aβ_(17-42)]"
–,70 % relative to self-seeding t50,"LVFFAEDVGSNKGAIIGLMVGGVV (numbers count on: the Aβ peptide; Used as SEC-purified monomer, as lag-phase oligomer preparation and as fibril seeds; source: synthetic peptide, bought: EZBiolab Inc; solubilized at pH 10, monomer isolated by SEC) [p3_(40) Peptide Aβ_(17-40)]"
